Measured values as given in US20230192845A1 (BLINK BIOMEDICAL, published 2023).

T1: human CD96 short isoform v2 expressed on CHO cells (human, UniProt P40200 22-585)
T1 construct: also called hCD96v2; CD96v2; not shown: C-terminal HA-tag
T1 sequence: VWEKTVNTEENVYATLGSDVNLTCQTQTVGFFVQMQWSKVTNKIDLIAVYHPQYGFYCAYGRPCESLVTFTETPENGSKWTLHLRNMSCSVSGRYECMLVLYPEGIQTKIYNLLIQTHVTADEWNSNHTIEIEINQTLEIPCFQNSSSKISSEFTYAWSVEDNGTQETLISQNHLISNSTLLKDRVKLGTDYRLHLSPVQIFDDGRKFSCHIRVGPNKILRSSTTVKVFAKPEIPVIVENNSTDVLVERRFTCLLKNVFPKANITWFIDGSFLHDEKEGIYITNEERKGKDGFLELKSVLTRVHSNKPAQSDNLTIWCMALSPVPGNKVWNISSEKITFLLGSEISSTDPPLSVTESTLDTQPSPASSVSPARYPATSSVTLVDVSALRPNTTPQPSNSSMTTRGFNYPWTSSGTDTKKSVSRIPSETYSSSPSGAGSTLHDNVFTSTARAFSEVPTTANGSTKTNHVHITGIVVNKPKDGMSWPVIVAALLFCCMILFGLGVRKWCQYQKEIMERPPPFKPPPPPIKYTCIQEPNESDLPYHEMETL

T2: mouse CD96 expressed on CHO cells (mouse, UniProt Q3U0X8 22-602)
T2 construct: whole, on cells; also called mCD96
T2 sequence (looked up): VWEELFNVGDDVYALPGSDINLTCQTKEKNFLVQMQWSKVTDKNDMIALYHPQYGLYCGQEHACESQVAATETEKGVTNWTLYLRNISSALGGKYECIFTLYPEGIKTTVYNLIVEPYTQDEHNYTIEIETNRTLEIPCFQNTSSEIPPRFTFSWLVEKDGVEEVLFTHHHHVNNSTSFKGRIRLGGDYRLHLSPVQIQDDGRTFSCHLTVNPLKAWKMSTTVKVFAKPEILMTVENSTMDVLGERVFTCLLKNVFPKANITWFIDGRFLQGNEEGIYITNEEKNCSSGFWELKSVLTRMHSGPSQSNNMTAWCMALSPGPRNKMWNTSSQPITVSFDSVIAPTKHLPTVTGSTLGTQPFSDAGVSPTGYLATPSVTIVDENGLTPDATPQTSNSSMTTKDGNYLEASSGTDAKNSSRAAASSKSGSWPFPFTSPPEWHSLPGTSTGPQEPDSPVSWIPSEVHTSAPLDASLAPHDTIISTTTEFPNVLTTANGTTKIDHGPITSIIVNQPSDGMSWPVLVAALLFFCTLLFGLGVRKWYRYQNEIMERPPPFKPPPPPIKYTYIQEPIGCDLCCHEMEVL

T3: rhesus CD96 transiently expressed on CHO cells (rhesus, UniProt P40200 22-585 (human entry))
T3 construct: also called rhesus CD96, short isoform
T3 chain: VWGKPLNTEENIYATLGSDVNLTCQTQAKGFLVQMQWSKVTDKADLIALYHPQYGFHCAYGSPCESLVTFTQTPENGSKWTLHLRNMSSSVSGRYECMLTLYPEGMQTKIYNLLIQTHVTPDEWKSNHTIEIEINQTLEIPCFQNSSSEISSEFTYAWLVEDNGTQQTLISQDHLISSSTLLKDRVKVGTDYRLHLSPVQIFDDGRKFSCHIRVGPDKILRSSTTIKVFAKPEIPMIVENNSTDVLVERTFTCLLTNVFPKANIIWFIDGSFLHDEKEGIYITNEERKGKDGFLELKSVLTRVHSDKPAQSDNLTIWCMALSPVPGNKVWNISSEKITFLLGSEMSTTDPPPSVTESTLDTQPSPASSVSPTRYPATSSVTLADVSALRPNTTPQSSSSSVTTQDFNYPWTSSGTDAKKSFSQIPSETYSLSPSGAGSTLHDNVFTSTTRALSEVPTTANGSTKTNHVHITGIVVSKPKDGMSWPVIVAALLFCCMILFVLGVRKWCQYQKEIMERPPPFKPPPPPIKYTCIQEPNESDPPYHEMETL

T4: human CD96 long isoform v1 transiently expressed on CHO cells (human, UniProt P40200 22-585)
T4 construct: also called hCD96v1; CD96v1
T4 sequence: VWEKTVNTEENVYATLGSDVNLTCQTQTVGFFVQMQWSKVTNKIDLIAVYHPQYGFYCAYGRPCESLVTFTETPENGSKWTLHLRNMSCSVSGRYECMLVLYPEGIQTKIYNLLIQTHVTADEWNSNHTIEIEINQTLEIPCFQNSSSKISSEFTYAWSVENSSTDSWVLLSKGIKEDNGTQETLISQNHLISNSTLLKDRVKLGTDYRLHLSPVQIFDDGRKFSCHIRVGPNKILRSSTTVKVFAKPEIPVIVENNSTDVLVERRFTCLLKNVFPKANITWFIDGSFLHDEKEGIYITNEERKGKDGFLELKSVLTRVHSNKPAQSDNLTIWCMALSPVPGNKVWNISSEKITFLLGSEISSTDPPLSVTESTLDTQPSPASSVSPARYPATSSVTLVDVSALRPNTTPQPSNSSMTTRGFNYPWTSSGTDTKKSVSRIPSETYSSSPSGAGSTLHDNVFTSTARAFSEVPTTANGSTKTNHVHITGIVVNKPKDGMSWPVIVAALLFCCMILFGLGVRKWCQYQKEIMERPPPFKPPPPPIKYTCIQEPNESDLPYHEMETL


Experiments:
[1] = target: T1, human CD96 short isoform v2 expressed …; test: FCM, inhibition of hCD155-Fc binding to hCD96v2-CHO cells
Method: (§1) All candidates except BL006-2-19 that bound very weakly on hCD96v2 by FCM were tested for their capacity to inhibit the binding of human CD155 to hCD96v2 stably expressed on CHO cells. Human CD96-transfected CHO cells (3×10⁵ cells/well of 96-well plate) were incubated at +4° C. for 30 minutes with serial dilutions of anti-CD96 antibodies or isotype control antibody (in mIgG2a or mIgG2aD265A format) in the presence of 4 μg/mL of biotinylated hCD155-Fc (produced and biotinylated at BliNK).
(§2) % inhibition=(1−(MFI_wAb&CD155−MFI_CHO)/(MFI_wCD155−MFI_CHO))×100, where MFI_wAb&CD155 is the Mean Intensity Fluorescence (MFI) obtained with the hCD96-CHO cells incubated with the tested antibody and hCD155-hFc; MFI_CHO is the MFI obtained in the absence of hCD155 and mAbs; and MFI_wCD155 is the fluorescence with hCD155 but without pre-incubation with antibody (0% CD155 binding inhibition). The % of inhibition was plotted against antibody concentration and the IC50 values were calculated by using a nonlinear regression analysis model of the GraphPad Prism software.

[2] = target: T2, mouse CD96 expressed on CHO cells; test: FCM on CHO cells expressing mouse CD96
Description: (§3) The capacity of the identified mouse anti-human CD96 antibodies to recognize the CD96 protein from other species was further analyzed by flow cytometry by using CHO cells expressing the mouse or the rhesus CD96. The expression of the species-specific CD96 on CHO cell surface was confirmed by using staining with appropriate anti-CD96 antibodies and flow cytometry on non-fixed cells. The rat anti-mCD96 antibody clone #630612 (R&D Systems) and the candidate BL006-9-1 (positive by ELISA on rhesus CD96) were used to confirm the expression of rhesus CD96, while the clone 6A6 (rat IgG2a, e-Bioscience) was used to verify the expression of mouse CD96.
(§4) Mouse anti-CD96 antibodies and isotype control antibodies were incubated at 10 or 1 μg/mL with CHO cells expressing different CD96 species at +4° C. for 30 minutes.

[3] = target: T1, human CD96 short isoform v2 expressed …; test: FCM on hCD96v2-CHO cells
Method: FIG. 6: Binding profiles of anti-hCD96 antibodies on human CD96-transfected CHO cells (hCD96v2, short isoform). CHO cells expressing hCD96v2 were incubated with serial dilution of the indicated mIgG1 or mIgG2a anti-CD96 or isotype control antibodies. […] The results are expressed as the difference of mean fluorescence intensity (delta MFI) between cells stained with antibodies and cells without antibodies. Dose response curves were obtained from GraphPad prism software using a non-linear regression fit with a variable slope model (4 parameters). To simplify the reading, results from the various anti-hCD96 candidates are shown on 4 different panels.
The capacity of the identified mouse anti-CD96 antibodies to recognize the cell membrane expressed human CD96 was further analyzed by flow cytometry (FCM) by using CHO cells stably transfected with the CD96 short isoform v2 (CD96v2; Genbank accession number NM_005816, flanked in C-terminus with HA-tag) (SEQ ID NO: 268).
Mouse anti-CD96 antibodies and isotype control antibodies were incubated at various concentrations from 10 μg/mL to 4.6 ng/mL with CHO cells expressing human CD96 at +4° C. for 30 minutes. […] The differences between the mean fluorescence intensity (MFI) obtained for each of the antibody concentration and the intensity obtained in absence of primary antibody (delta-MFI), were calculated and plotted against the concentrations of antibodies.

[4] = target: T3, rhesus CD96 transiently expressed on …; test: flow cytometry on CHO cells transiently expressing rhesus CD96; antibody at 1 (thin line) and 10 µg/ml (thick dashed line), filled grey = isotype control
Method: FIG. 7: Binding profiles of anti-CD96 antibodies on CHO cells transfected with rhesus CD96. Anti-CD96 antibodies or the corresponding isotype control mAbs were tested for their capacity to recognize rhesus CD96 transiently expressed on CHO cells by flow cytometry. Each histogram represents the overlay of the fluorescence intensity obtained for each antibody tested at 1 (black line) and 10 μg/ml (thick dashed black line) and compared to the fluorescence obtained with an isotypic control (filled grey histogram).
as §3, §4

[5] = target: T1, human CD96 short isoform v2 expressed …; test: FCM, inhibition of hCD155-Fc binding to hCD96v2-CHO cells; relative IC50
Method: as §1, §2

[6] = target: T4, human CD96 long isoform v1 transiently …; test: FCM on hCD96v1-CHO cells, 10 µg/ml
[7] = target: T1, human CD96 short isoform v2 expressed …; test: flow cytometry, indirect staining of transiently transfected CHO-S cells; median % of stained cells, 3-4 experiments
Description: Expression plasmids containing either the complete sequence of hCD96v2 or different extracellular domains (D1 to D3) of hCD96v2 or combinations thereof (D1D2, D1D3 or D2D3) were transiently transfected in CHO-S cells. Each transient transfect was indirectly stained with the different anti-CD96 candidates and analyzed by flow cytometry. Represented is the median % of stained CHO-S transfect obtained from 3 to 4 independent experiments for each anti-CD96 tested.
Expression vectors coding for truncated extracellular domains of hCD96v2 (short isoform v2) were constructed to map, within the 3 described immunoglobulin domains of hCD96v2, the epitopes recognized by the anti-hCD96 candidates. All expression vectors constructed contained the signal peptide, the D4 domain, the transmembrane, the intracellular chain of […] plus a HA-Tag to monitor transfection efficiency of the various constructs. The expression vectors contained only D1, D2, D3 or combinations of those 3 domains (D1D2, D1D3, D2D3). The anti-hCD96 antibodies were tested by FCM for their capacity to recognize the truncated CD96 proteins transiently expressed on CHO-S cells.

Binder | Maximal Inhibition Capacity (%) [1] | binding result [2] | EC50 [3] | Maximum binding (delta MFI) [3] | binding result [4] | IC50 [5] | binding result [6] | binding result [7]
BL006-19-14G3-14K1 (antibody, V domains shown, Recombinant mIgG2a/kappa (also made as mIgG2a-D265A); also called BL006-19-14G3-14K1 #8; candidate NO 6) VH: QVTLKESGPGILQPSQTLSLTCSFSGFSLDTFGMGVGWIRQSSGKGLEWLAHIWWDDDKFYNPALKSRLTVSKDTSKNQVFLKIANVDTADTATYYCAHYYGSLSFDVWGTGTTVTVSS VL: not shown | 41.4% | no binding (tested: 1 and 10 µg/mL) | 3.1 nM | 694000 delta MFI | binds | 2.67 nM | – | –
BL006-8-3G9-3K4 (antibody, V domains shown, Recombinant mIgG2a/kappa (also made as mIgG2a-D265A); also called BL006-8-3G9-3K4 #6; candidate NO 4) VH: QVQLQQSGAELVRPGASVKLSCKASGYRFTDYEMEWVKQTPVHGLEWIGAIDPETGGTAYNQKFKGKATVTADKSSRTAYMELRSLTSEDSAVYYCTREGDGSYGAYWGQGTLVTVSA VL: DVMMTQTPLSLPVSLGDQASISCRSSQSIVYSNGNTYLEWYLQKPGQSPKLLMYKVSNRFSGVPDRFSGSGSGTDFTLKISRVEAEDLGVYYCFQGSHAPWTFGGGTKLEIK | < 5% | no binding (tested: 1 and 10 µg/mL) | 4.68 nM | 235000 delta MFI | no binding (tested: 10 µg/ml) | – | – | –
BL006-2-19G13-19K15 (antibody, V domains shown, Recombinant mIgG2a/kappa (also made as mIgG2a-D265A); also called candidate NO 9) VH: QVQLQQPGSELVRPGASVKLSCKASGYKFTSYWMHWVKQRPGQGLEWIGSIYPGSGSTNYDEKFKRKATLTVDTFSSTASMQLSSLTSEDSAVYYCTREMAYWGQGTLVTVSA VL: DIVITQDELSNPVTSGESVSISCRSSKSLLYKDGKTYLNWFLQRPGQSPQLLVYWMSTRASGVSDRFSGSGSGTDFTLEISRVKAEDVGVYYCQQVVEYPFTFGTGTKLGIK | – | no binding (tested: 1 and 10 µg/mL) | – | – | binds | – | binds | binds
BL006-19-29G5-29K1 (antibody, V domains shown, Recombinant mIgG2a/kappa (also made as mIgG2a-D265A); also called candidate NO 14) VH: QVTLKESGPGILQSSQTLSLTCSFSGFSLSTFGMGVSWIRKPSGKGLEWLAHIFWDDDKRYNPSLKSRLTISKDTSSNQVFLMINSMDIADTATYYCTRGSNWFAYWGQGTLVTVSA VL: DIVLTQSPASLAVSLGQRATISCRASESVDSYGNSFMHWYQQKPGQPPKLLIYRASNLESGIPARFSGSGSRTDFTLTINPVEADDVATYYCQQSNEDPLTFGAGTKLELK | 43.1% | no binding (tested: 1 and 10 µg/mL) | 2.98 nM | 753000 delta MFI | binds | 5.24 nM | – | –
